Data: publication PMC9366199, “Bivalent binding of p14ARF to MDM2 RING and acidic domains inhibits E3 ligase function” (Life Science Alliance, 2022)

Biological target: T1, UBE2D2^(S22R C85K)–Ub (UniProt P62837 2-147; P0CG48 1-76, S22R | C85K)
T1 construct: UBE2D2 with S22R and C85K, conjugated to ubiquitin; ubiquitin (Ub), conjugated to UBE2D2; also called UBE2D2–Ub; UBE2D2–Ub conjugate; source: purified as described previously (Buetow et al, 2015)
Assay: SPR; Biacore T200, 25°C; GST-MDM2 variants captured on anti-GST nanobodies on CM-5 chips (about 500 RU), GST as control; UBE2D2–Ub as analyte, seven twofold dilutions from 100 μM; 25 mM Tris-HCl pH 7.6, 300 mM NaCl, 0.5 mM TCEP, 0.005% Tween-20; steady-state affinity
Conditions: both partners purified

Kd: 14.5 ± 1.4 µM
B1: GST-tagged MDM2^419-C containing the RING domain (domain or fragment, UniProt Q00987 419-491, looked up)
chain: TQDKEESVESSLPLNAIEPCVICQGRPKNGCIVHGKTGHLMACFTCAKKLKKRNKPCPVCRQPIQMIVLTYFP
notes: MDM2, residues 419 to the C-terminus (RING domain); TEV site between GST and MDM2 (modified pGEX-4T-1); the oligomeric state of the GST fusion was not measured here; also called GST-MDM2^RING; MDM2^RING; source: E. coli BL21-DE3; co-expressed with His-GFP-MDM2^220-334, in lysate (pull-down); not shown: GST, N-terminal, kept
